Laboratory results reported in patent publication US20080193435A1, “Revascularization of Ischemic Retinal Tissue and Screening Method Therefor” (priority 2005, published 2008).
“Also recorded” adds a separate entry of the source.

Experiments:
mouse OIR model = experiment: Mouse oxygen-induced retinopathy (OIR) model, whole-mount retina quantification of vascular obliteration and neovascular tuft areas; type: in vivo; set-up: vascular morphology of the retina / neovascular tuft areas compared to VEGF aptamer treated retinas: dose or concentration left out as unconfirmed; conditions: for effect on area of neovascular tuft formation: single intravitreal injection at P12, various doses; for effect on physiological revascularization of the retina: vs PBS control
Protocol: All animal work adhered to strict protocol guidelines for the humane care and use of animals in research. OIR was induced according to the protocol described by Smith et al. Invest. Opthalmol. Vis. Sci., 1994; 35:101-111. Seven-day old mouse pups and their mothers were transferred from room air to a hyperoxic environment of about 75% oxygen for 5 days, and afterwards returned to room air (normoxia). Exposure to hyperoxic conditions was performed by putting the animal cages within a modified human infant incubator. Oxygen was circulated through the incubator (using an animal anesthesia machine to control flow) and levels were monitored and maintained at 74-75% using an FDA-approved oxygen analyzer (AX-300, Teledyne Analytical Instruments, CA, USA). During the 5 days of hyperoxia, the animals were examined at least three times daily. Unlimited food and water were available to the mothers throughout the experiment. After 5 days, i.e., at postnatal Day 12 (P12), cages were returned to room air.
After the mice were euthanized, enucleated eyes were fixed in 4% paraformaldehyde in PBS for about 10 minutes, and the retinas were dissected by making a circular cut behind the limbus, approximately at the iris root, and then removing the anterior part of the eye. The lens and vitreous were dissected out, and the retina was separated from the scleral and choroidal layers leaving the retina in an eye-cup configuration. Radial relaxing-incisions were made in the retina to allow it to flatten and any remnants of the vitreous or hyaloid were carefully removed from the flattened retina.
For FITC-dextran angiography, animals were anaesthetized by intraperitoneal injections of Ketamine HCl (Ketalar, Parke Davis, UK, 100 mg/kg) in combination with the relaxing agent Xylazine (2 mg/kg). Approximately 300 μl of high molecular weight (2×106 Da) FITC-Dextran (concentration 50 mg/ml, Sigma, St. Louis, Mo.) were injected into the left ventricle and allowed to circulate for approximately two minutes before euthanizing the animal and enucleating the eyes. For isolectin G4 staining, retinas were post-fixed in 4% paraformaldehyde for about 45 minutes, and incubated at room temperature overnight with isolectin GS-IB4 from Griffonia simplicifolia (isolectin GS) that was conjugated to Alexa Fluor 59 4 (Molecular Probes, 1:150 dilution in phosphate buffered saline (PBS)) to afford “isolectin GS-594”. Following 4-5 washes with PBS over a 2 hour span, retinas were mounted as whole-mount preparations on slides with SLOW FADE (Molecular Probes) for subsequent imaging.
Micrographic images were taken using a 4× objective lens with a detector resolution of 512×512 pixels. Extra care was taken to focus just above the inner limiting membrane of the retina using confocal microscopy (BioRad) so that the pre-laminar neovascular tufts became more prominent than the underlying superficial vascular plexus making subsequent quantification of the neovascular tuft areas easier. In most cases, four overlapping images (each representing one retinal quadrant) were acquired from each retina. Using Adobe PHOTOSHOP® 6.0, montages were then created using retinal landmarks such as the optic disc and major vessels to align the images. These montages allowed visualization and quantification of the entire retina. In a few cases where both the obliterated areas and all areas of neovascularization were located toward the center of the retina, single 4× images centered on the optic disk were acquired. While the peripheral retina is not included in its entirety in such images, the relevant OIR-induced changes can be fully seen in these cases. Each individual image was converted to a 2×2 inch size with 300 pixels per inch resolution prior to creating the montage and quantifying the obliteration and neovascular tuft areas. […]

angiogenesis = conditions: previously found; cited from earlier work
[1] = single intravitreal injection at P12, read at P17

B1: FL-TrpRS: full-length tryptophan tRNA synthetase (protein, UniProt P23381 1-471, looked up)
chain: MPNSEPASLLELFNSIATQGELVRSLKAGNASKDEIDSAVKMLVSLKMSYKAAAGEDYKADCPPGNPAPTSNHGPDATEAEEDFVDPWTVQTSSAKGIDYDKLIVRFGSSKIDKELINRIERATGQRPHHFLRRGIFFSHRDMNQVLDAYENKKPFYLYTGRGPSSEAMHVGHLIPFIFTKWLQDVFNVPLVIQMTDDEKYLWKDLTLDQAYSYAVENAKDIIACGFDINKTFIFSDLDYMGMSSGFYKNVVKIQKHVTFNQVKGIFGFTDSDCIGKISFPAIQAAPSFSNSFPQIFRDRTDIQCLIPCAIDQDPYFRMTRDVAPRIGYPKPALLHSTFFPALQGAQTKMSASDPNSSIFLTDTAKQIKTKVNKHAFSGGRDTIEEHRQFGGNCDVDVSFMYLTFFLEDDDKLEQIRKDYTSGAMLTGELKKALIEVLQPLIAEHQARRKEVTDEIVKEFMTPRKLSFDFQ
modifications: full-length
notes: full-length tryptophan tRNA synthetase
For B1, the “effect on area of neovascular tuft formation” value (mouse OIR model; read at P17) is listed as “some activity at the highest dose”, the “effect on physiological revascularization of the retina” value (mouse OIR model; [1]) is listed as “significant enhancement of the revascularization process but only at the higher doses” and the “angiostatic activity in other models of angiogenesis” value (angiogenesis) is listed as “no angiostatic activity”.

B2: T2-TrpRS: proteolytic fragment of tryptophan tRNA synthetase (TrpRS); SEQ ID NO: 1 (protein, listed as Homo sapiens)
chain: SAKGIDYDKLIVRFGSSKIDKELINRIERATGQRPHHFLRRGIFFSHRDMNQVLDAYENKKPFYLYTGRGPSSEAMHVGHLIPFIFTKWLQDVFNVPLVIQMTDDEKYLWKDLTLDQAYSYAVENAKDIIACGFDINKTFIFSDLDYMGMSSGFYKNVVKIQKHVTFNQVKGIFGFTDSDCIGKISFPAIQAAPSFSNSFPQIFRDRTDIQCLIPCAIDQDPYFRMTRDVAPRIGYPKPALLHSTFFPALQGAQTKMSASDPNSSIFLTDTAKQIKTKVNKHAFSGGRDTIEEHRQFGGNCDVDVSFMYLTFFLEDDDKLEQIRKDYTSGAMLTGELKKALIEVLQPLIAEHQARRKEVTDEIVKEFMTPRKLSFDFQ
In the case of B2, the “reduction of tuft formation” value (mouse OIR model; P19, after two injections (P13 and P16) of lower doses, VEGF aptamer 0.5 mg/eye/injection, 53.9 picomoles) is reported as “over 75%”, the “neovascular tuft areas compared to VEGF aptamer treated retinas” value (mouse OIR model; T2-TrpRS, intravitreal, molar concentration 10-fold below the aptamer) is reported as “slight, but significant reduction” and the “inhibition of neovascular tuft formation” value (mouse OIR model; about 1.25 μg/eye, intravitreal) is reported as “nearly complete inhibition”. For the same molecule, the “vascular morphology of the retina” value (mouse OIR model; intravitreal at P12, P17) was “looked nearly normal”, the “obliterated areas compared to control retinas” value (mouse OIR model; intravitreal injection, areas of obliteration equivalent at time of injection) was “reduced by half” and the “effect on area of neovascular tuft formation” value (mouse OIR model; read at P17) was “markedly reduced the area of neovascular tuft formation at P17 in a dose-dependent matter; also recorded: potent inhibitors of neovascular tuft formation; also recorded: strong, dose-dependent angiostatic effect”. The “reduction of obliterated areas at P17 compared to PBS control-injected retinas” value (mouse OIR model; [1]) was “around 40%”, the “effect on physiological revascularization of the retina” value (mouse OIR model; [1]) was “significantly enhanced revascularization, even at lower doses” and the “angiostatic activity in other models of angiogenesis” value (angiogenesis) was “potent angiostatic potential”.
